Positions count from the first letter of the chain named. Names and notes keep the numbering of the source.
T1: His-tagged recombinant Human TIGIT (human, UniProt Q495A1 22-141)
T1 construct: coated antigen of the direct ELISA; not shown: His tag
T1 sequence (looked up): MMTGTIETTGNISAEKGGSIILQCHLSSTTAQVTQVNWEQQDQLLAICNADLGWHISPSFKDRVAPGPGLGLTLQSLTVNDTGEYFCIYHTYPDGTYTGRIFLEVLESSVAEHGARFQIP

T2: His-tagged recombinant Mouse TIGIT (mouse, UniProt P86176 29-148, limits assumed)
T2 construct: coated antigen of the direct ELISA; not shown: His tag
T2 sequence (looked up): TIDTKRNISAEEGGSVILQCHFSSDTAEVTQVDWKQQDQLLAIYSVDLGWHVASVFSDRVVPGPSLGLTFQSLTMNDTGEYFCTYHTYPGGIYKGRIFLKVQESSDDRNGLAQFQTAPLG

T3: biotinylated human TIGIT (human, UniProt Q495A1 22-141, biotinylated (EZ-Link NHS-PEG4-biotin kit))
T3 construct: extracellular domain; also called TIGIT-ECD
T3 sequence (looked up): T1 sequence (looked up)

T4: mouse TIGIT-Fc (mouse, UniProt P86176 29-148)
T4 construct: extracellular domain; also called TIGIT-ECD; not shown: Fc
T4 sequence (looked up): T2 sequence (looked up)

T5: human TIGIT fused to a beta galactosidase portion, on YTS cells (YTS_hTIGIT/hGrb2) (human, UniProt Q495A1 22-244)
T5 sequence (looked up): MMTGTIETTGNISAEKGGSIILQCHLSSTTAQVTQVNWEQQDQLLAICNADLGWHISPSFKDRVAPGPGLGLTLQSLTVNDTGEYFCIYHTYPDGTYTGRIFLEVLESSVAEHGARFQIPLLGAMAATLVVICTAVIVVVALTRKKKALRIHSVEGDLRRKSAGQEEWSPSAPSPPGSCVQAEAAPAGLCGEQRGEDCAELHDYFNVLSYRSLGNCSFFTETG

B1: Ab40i4 (antibody, V domains shown)
VH: EVQLLESGGGLVQPGGSLRLSCAASGFTFSSYSMNWVRQAPGKGLEWVAGIKSSSGNKYYADSVKGRFTISRDNSKNTLYLQMNSLRAEDTAVYYCARGPYDVWMDYWGQGTLVTVSS
VL: not shown
B2: Ab16i2 (antibody, V domains shown)
VH: B1 VH with N35H, G50A, S55G, G56S, N57S, K58T, Y59S, G99V, V103Y, M105L
VL: not shown
B3: Ab1i9 (antibody, V domains shown)
VH: EVQLLESGGGLVQPGGSLRLSCAASGFTFSSYAMHWVRQAPGKGLEWVSGISSNGGSTSYADSVKGRFTISRDNSKNTLYLQMNSLRAEDTAVYYCARAPYSVWIDYWGQGTLVTVSS
VL: not shown
notes: mIgG2a of Ab1, V95A
B4: Ab15i2 (antibody, V domains shown)
VH: B1 VH with N35H, G50S, K52W, S54N, K58T, Y59G, G99V, V103Y
VL: not shown
notes: mIgG2a of Ab15
B5: Ab10i2 (antibody, V domains shown)
VH: B1 VH with G50Y, S54N, N57T, Y59G, V103Y, M105L
VL: not shown
notes: hIgG1 of Ab10
B6: Ab22i1 (antibody, V domains shown)
VH: B1 VH with N35H, G50S, S55G, N57S, G99V, V103Y
VL: not shown
notes: hIgG1 of Ab22
B7: Ab1 (Fab, V domains shown)
VH: B3 VH with A99V
VL: not shown
B8: Ab16i1 (antibody, V domains shown)
VH: B3 VH with A33S, S49A, G50A, S52K, N54S, G56S, A99V, S102D, V103Y, I105L
VL: not shown
B9: Ab48 (Fab, V domains shown)
VH: B1 VH with G50N, S55G, G56S, N57S, K58T, Y59S
VL: not shown
B10: Ab15i1 (antibody, V domains shown)
VH: B1 VH with N35H, G50S, K52W, S54N, K58T, Y59G, G99V, V103Y
VL: not shown
notes: hIgG1 of Ab15
B11: Ab1i5 (antibody, V domains shown)
VH: B3 VH with A99V, I105A
VL: not shown
notes: mIgG2a of Ab1, I100aA
B12: Ab1i7 (antibody, V domains shown)
VH: B3 VH with A99V, S102A
VL: not shown
notes: mIgG2a of Ab1, S98A
B13: Ab1i8 (antibody, V domains shown)
VH: B3 VH with A99V, S102G
VL: not shown
notes: mIgG2a of Ab1, S98G
B14: Ab1i10 (antibody, V domains shown)
VH: B3 VH with A99V, V103A
VL: not shown
notes: mIgG2a of Ab1, V99A

Columns and labels:
[1] = target: T1, His-tagged recombinant Human TIGIT; experiment: ELISA
Procedure: (§1) Binding affinities for antigen binding to anti-TIGIT monoclonal antibodies were determined by ELISA. […] Antibodies to be tested were diluted to 1 μM in PBS buffer containing 1% BSA and diluted 3-fold in a 10-point curve. […] Detection of the secondary antibody was determined using streptavidin-HRP and TMB reagent. All assays were performed at room temperature. Curve-fitting software was used to determine the EC₅₀ for each antibody.

[2] = target: T2, His-tagged recombinant Mouse TIGIT; experiment: ELISA
Procedure: as §1

biotinylated human TIGIT = target: T3, biotinylated human TIGIT; experiment: comp. ELISA vs PVR
Procedure: (§2) Antibodies were serially diluted in a 10-point curve starting at 1 μM in 3-fold steps. […] Units are in microM.

mouse TIGIT-Fc = target: T4, mouse TIGIT-Fc; experiment: comp. ELISA vs PVR
Procedure: as §2

[3] = target: T5, human TIGIT fused to a beta …; experiment: cell-based or functional assay

Binder | EC50 [1] | EC50 [2] | IC50 (biotinylated human TIGIT) | IC50 (mouse TIGIT-Fc) | YTS_hTIGI/hGrbs_EFC_Agonism, 221_WT [3] | YTS_hTIGI/hGrbs_EFC_Antagonism, 221_hPVR/ICAM [3]
B1 | 0.3 nM | 2.5 nM | 3 nM | 11.1 nM | 0.0007 µM | 1.63 µM
B2 | 6.4 nM | 0.5 nM | 84.6 nM | 4.1 nM | – | –
B3 | 0.6 nM | 2.3 nM | 2.3 nM | 9 nM | – | –
B4 | 21.6 nM | 2.7 nM | 10.9 nM | 1.6 nM | > 1 µM | 0.275 µM
B5 | 0.3 nM | 0.1 nM | 8.5 nM | 1.1 nM | – | 0.39 µM
B6 | 0.7 nM | 0.3 nM | 1.5 nM | 0.5 nM | – | 0.16 µM
B7 | 40.3 nM | 181 nM | 89.9 nM | 632 nM | – | –
B8 | 2.1 nM | 0.5 nM | 2.1 nM | 0.4 nM | – | –
B9 | 13.8 nM | 41.8 nM | 111 nM | 64.7 nM | – | –
B10 | 4.8 nM | 2.3 nM | 2.2 nM | 1.2 nM | > 1 µM | > 1 µM
B11 | 8 nM | 6.8 nM | 2.8 nM | 13.3 nM | – | –
B12 | 3.8 nM | 72.9 nM | 16.1 nM | 183 nM | – | –
B13 | 1.7 nM | 26.3 nM | 5.8 nM | 99.3 nM | – | –
B14 | 3.9 nM | 15.1 nM | 5.8 nM | 488 nM | – | –

Reference: patent publication US20200339678A1 (RIGEL PHARMACEUTICALS, published 2020)
